Assay results published in the supplement of paper PMC7125110.
± gives the standard error. For some of these results: This sample holds only a part of the variants without activity.

B1: glmS ribozyme (parent)
chain: AUAAAAGCGCCAGAACUACAGAAAUGUAGUUGACGAGGAGGAGGUUUAUCGAAUUUUCGGCGGAUGCCUCCAAA

Tests used:
Details in all cases: with glucosamine-6-phosphate
glucosamine-6-phosphate [1] = variants of: B1; test: kcat; higher = faster cleavage; RNA array
Summary of the method: (§1)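 Glucosamine-6-phosphate in HEPES/KCl/Mg(OAc)2 buffer, at 40 μM to 10 mM, was flowed over barcoded ribozyme variants transcribed in situ by E. coli RNA polymerase on sequenced MiSeq chips. Tracking was through a hybridised Cy3 probe at 37 °C. kobs, kcat and KM came from exponential decay fits and weighted Michaelis–Menten fits of normalised per-tile medians.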

glucosamine-6-phosphate [2] = variants of: B1; test: KM; higher = weaker cofactor use; RNA array
Summary of the method: as §1

glucosamine-6-phosphate [3] = variants of: B1; test: self-cleavage kobs at 40 uM GlcN6P; higher = faster cleavage; RNA array
Summary of the method: as §1

glucosamine-6-phosphate [4] = variants of: B1; test: self-cleavage kobs at 160 uM GlcN6P; higher = faster cleavage; RNA array
Summary of the method: as §1

glucosamine-6-phosphate [5] = variants of: B1; test: self-cleavage kobs at 640 uM GlcN6P; higher = faster cleavage; RNA array
Summary of the method: as §1

glucosamine-6-phosphate [6] = variants of: B1; test: self-cleavage kobs at 2500 uM GlcN6P; higher = faster cleavage; RNA array
Summary of the method: as §1

glucosamine-6-phosphate [7] = variants of: B1; test: self-cleavage kobs at 10000 uM GlcN6P; higher = faster cleavage; RNA array
Summary of the method: as §1

Variant	kcat (glucosamine-6-phosphate [1]) [s⁻¹]	KM (glucosamine-6-phosphate [2]) [µM]	self-cleavage kobs at 40 uM GlcN6P (glucosamine-6-phosphate [3]) [s⁻¹]	self-cleavage kobs at 160 uM GlcN6P (glucosamine-6-phosphate [4]) [s⁻¹]	self-cleavage kobs at 640 uM GlcN6P (glucosamine-6-phosphate [5]) [s⁻¹]	self-cleavage kobs at 2500 uM GlcN6P (glucosamine-6-phosphate [6]) [s⁻¹]	self-cleavage kobs at 10000 uM GlcN6P (glucosamine-6-phosphate [7]) [s⁻¹]
U30G G40C	0.000669 ± 0.0001	864 ± 240	3.69e-05 ± 1.2e-05	0.000103 ± 1.9e-05	0.000265 ± 3.4e-05	0.000619 ± 8.6e-05	0.000544 ± 0.0001
U30C U55G	0.00036 ± 1.6e-05	1480 ± 160	–	–	0.000105 ± 2.8e-05	0.000236 ± 4.5e-05	0.000307 ± 5.8e-05
U31A G40C	0.00121 ± 0.00017	1410 ± 380	3.09e-05 ± 7.3e-06	0.000105 ± 3e-05	0.00048 ± 0.0001	0.00115 ± 0.00024	0.00101 ± 0.00011
U30C U56A	0.000339 ± 6.9e-06	2910 ± 110	–	–	6.11e-05 ± 6.9e-06	0.000155 ± 1.6e-05	0.000263 ± 2.4e-05
U31C C70G	5.96e-05 ± 8.1e-06	–	–	–	3.34e-05 ± 7.2e-06	6.15e-05 ± 7.8e-06	4.89e-05 ± 8.3e-06
U30G G32A U49G	6.41e-05 ± 1.8e-05	–	–	–	–	6.89e-05 ± 2.1e-05	5.26e-05 ± 1.5e-05
G29U U65C	6.8e-05 ± 1.9e-05	–	–	–	–	6.54e-05 ± 1.3e-05	5.46e-05 ± 1.2e-05
U30G A64G	0.00607 ± 0.0017	1440 ± 540	0.000178 ± 3.9e-05	–	–	–	0.0064 ± 0.0018
U30G A64C	5.41e-05 ± 5.3e-06	4950 ± 1100	–	–	–	–	3.61e-05 ± 1.5e-05
U30C U65A	2.91e-05 ± 1.2e-05	–	–	–	–	3.76e-05 ± 1.2e-05	–
U30G U54C	0.00885 ± 0.00078	2170 ± 270	0.000148 ± 2.5e-05	0.000617 ± 0.00011	0.00235 ± 0.00041	0.00471 ± 0.0008	0.00714 ± 0.001
U31C G66U	0.000326 ± 6.8e-05	4610 ± 1700	–	–	–	0.000124 ± 1.6e-05	0.000214 ± 3.5e-05
U30G U46C	0.000516 ± 3.6e-05	1240 ± 170	–	6.38e-05 ± 2.1e-05	0.000167 ± 3.1e-05	0.000377 ± 7.4e-05	0.000443 ± 8.5e-05
U30G U46G	0.00267 ± 0.0006	3990 ± 1200	4.16e-05 ± 1.4e-05	0.000105 ± 2.3e-05	0.000333 ± 4.9e-05	0.00112 ± 0.00015	0.00181 ± 0.00038
U30C G32U	0.000492 ± 0.00011	3230 ± 1300	–	–	9.97e-05 ± 1.7e-05	0.000183 ± 2.9e-05	0.000403 ± 5.7e-05
U30C G32C	0.000399 ± 5.8e-05	3500 ± 1100	–	–	5.99e-05 ± 1.9e-05	0.000157 ± 3e-05	0.0003 ± 3.4e-05

Variant	kcat (glucosamine-6-phosphate [1]) [s⁻¹]	KM (glucosamine-6-phosphate [2]) [µM]	self-cleavage kobs at 40 uM GlcN6P (glucosamine-6-phosphate [3]) [s⁻¹]	self-cleavage kobs at 160 uM GlcN6P (glucosamine-6-phosphate [4]) [s⁻¹]	self-cleavage kobs at 640 uM GlcN6P (glucosamine-6-phosphate [5]) [s⁻¹]	self-cleavage kobs at 2500 uM GlcN6P (glucosamine-6-phosphate [6]) [s⁻¹]	self-cleavage kobs at 10000 uM GlcN6P (glucosamine-6-phosphate [7]) [s⁻¹]
U31C C71G	0.000382 ± 8.8e-05	1970 ± 890	–	–	9.1e-05 ± 1.5e-05	0.000213 ± 3.5e-05	0.000321 ± 4.9e-05
U31C A33U	1.97e-05 ± 2.4e-06	–	–	–	–	–	1.73e-05 ± 6e-06
U31A C50A G51U A53G	< 1e-05	–	–	< 1e-05	–	–	–
U30G U69A	8.59e-05 ± 2.5e-05	–	–	3.45e-05 ± 1.7e-05	4.5e-05 ± 1.1e-05	0.00013 ± 2e-05	6.73e-05 ± 1.4e-05
G29U G59A	1.03e-05 ± 3.2e-06	–	< 1e-05	–	–	–	–
G29U G59U	< 1e-05	–	–	< 1e-05	–	–	–
U30C C70A	5.42e-05 ± 6.4e-06	–	–	5.93e-05 ± 2.3e-05	7.04e-05 ± 2.5e-05	5.57e-05 ± 1.8e-05	4.43e-05 ± 1.5e-05
U30A C70G	8.36e-05 ± 9.7e-06	–	–	6.81e-05 ± 1.8e-05	6.45e-05 ± 1.5e-05	0.000108 ± 2.6e-05	8.03e-05 ± 1.3e-05
U31C A42G	0.00894 ± 0.0011	2260 ± 400	0.000166 ± 2.9e-05	0.000469 ± 0.00016	0.00212 ± 0.00035	0.00407 ± 0.0011	0.00754 ± 0.0012
U31C G32A	0.0022 ± 0.00058	6580 ± 2400	4.27e-05 ± 1.5e-05	6.8e-05 ± 1.3e-05	0.000179 ± 2.1e-05	0.000604 ± 7.5e-05	0.00134 ± 0.00014
U31C G32U	0.000799 ± 8e-05	4030 ± 600	–	3.53e-05 ± 8.1e-06	0.000112 ± 9.6e-06	0.000281 ± 2.9e-05	0.000594 ± 5.8e-05
U31A A53U	0.02 ± 0.007	3760 ± 1700	0.000232 ± 3.6e-05	0.000911 ± 0.00027	0.00278 ± 0.00064	0.00529 ± 0.0016	0.0181 ± 0.0034
U31C U57G C67A	< 1e-05	–	–	< 1e-05	–	–	–
U31A G37C	3.35e-05 ± 2.7e-06	1840 ± 580	–	–	–	–	–
U31A G37A	0.0007 ± 0.00026	–	–	6.91e-05 ± 1.3e-05	0.000245 ± 3.6e-05	0.000309 ± 7.3e-05	0.000939 ± 0.00018
U31C U45A	0.0175 ± 0.0045	3890 ± 1200	0.000212 ± 6e-05	0.000613 ± 0.00012	0.00258 ± 0.00062	0.00783 ± 0.0016	0.0108 ± 0.004
